The test system of data set [1] is hTERT (191-306), purified.
The target of data set [2] is T1, hTERT (191-306), purified.
T1 chain: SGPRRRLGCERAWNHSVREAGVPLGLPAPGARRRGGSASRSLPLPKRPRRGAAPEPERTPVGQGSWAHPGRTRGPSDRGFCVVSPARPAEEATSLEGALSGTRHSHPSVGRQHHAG

As to CDK1-cyclin B (New England Biolabs), the “in vitro kinase assay; phosphorylation site found by mass spectrometry and by Western blotting with Anti-hTERT pT249” value in data set [1] is “pT249 was detected from only a sample treated with CDK1”.

B1: IKK2 (2-664) (protein)
chain: SWSPSLTTQTCGAWEMKERLGTGGFGNVIRWHNQETGEQIAIKQCRQELSPRNRERWCLEIQIMRRLTHPNVVAARDVPEGMQNLAPNDLPLLAMEYCQGGDLRKYLNQFENCCGLREGAILTLLSDIASALRYLHENRIIHRDLKPENIVLQQGEQRLIHKIIDLGYAKELDQGSLCTSFVGTLQYLAPELLEQQKYTVTVDYWSFGTLAFECITGFRPFLPNWQPVQWHSKVRQKSEVDIVVSEDLNGTVKFSSSLPYPNNLNSVLAERLEKWLQLMLMWHPRQRGTDPTYGPNGCFKALDDILNLKLVHILNMVTGTIHTYPVTEDESLQSLKARIQQDTGIPEEDQELLQEAGLALIPDKPATQCISDGKLNEGHTLDMDLVFLFDNSKITYETQISPRPQPESVSCILQEPKRNLAFFQLRKVWGQVWHSIQTLKEDCNRLQQGQRAAMMNLLRNNSCLSKMKNSMASMSQQLKAKLDFFKTSIQIDLEKYSEQTEFGITSDKLLLAWREMEQAVELCGRENEVKLLVERMMALQTDIVDLQRSPMGRKQGGTLDDLEEQARELYRRLREKPRDQRTEGDSQEMVRLLLQAIQSFEKKVRVIYTQLSKTVVCKQKALELLPKVEEVVSLMNEDEKTVVRLQEKRQKELWNLLKIACSK
On to B1, for which the “in vitro kinase assay (negative control); phosphorylation sites found by mass spectrometry” value in data set [2] was “pS206, pS274, pT283 and the like were detected from a sample treated with IKK2”.
